Consider 15 variants from the RNAGym collection of RNA variant scans (doi:10.1093/molbev/msab373).

B1: Azoarcus group I ribozyme (parent)
chain: GUGCCUUGCGCCGGGAAACCACGCAAGGGAUGGUGUCAAAUUCGGCGAAACCUAAGCGCCCGCCCGGGCGUAUGGCAACGCCGAGCCAAGCUUCGGCGCCUGCGCCGAUGAAGGUGUAGAGACUAGACGGCACCCACCUAAGGCAAACGCUAUGGUGAAGGCAUAGUCCAGGGAGUGGCGAAAGUCACACAAACCGG

Variants of B1 are the subject of this data set. As to the kind of experiment: reverse-splicing fitness (ratio to wild type); higher = more active; in vitro selection; Mg2+ level not given. In a few lines: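 An in vitro group I ribozyme library with randomized positions was T7-transcribed and gel-purified. In triplicate, 10 pmol RNA in EPPS pH 7.5 was reacted with 50 pmoles of a 30-nt RNA substrate for 1 h at 37 °C across several added MgCl2 levels (1–48 mM), then stopped with EDTA. Products were reverse transcribed from a substrate-complementary primer, PCR-amplified and sequenced (HiSeq 4000). Fitness is a variant's read proportion after selection over that before, normalised to wild type.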
GUGCCUUGCGCCGGGAAACCACGCAAGGGAUGGUGUCAAAUUCGGCGAAACCUAAGCGCCCGCCCGGGCGUAUGGCAACGCUGAGCCAAGCUUCGGCGCCUGCGCCGAUGGAGGUGUAGCGACUAGACGGCACCCACCUAAGGCAAACGAUAUGGUGAAGGCAUAGUCUAGGGAGAGGCGAAAGUCACACAAACCGG [C82U A111G A120C C150A C169U U176A]: the reverse-splicing fitness was 0.017.
As for GUGCCUUGCGCCGGGAAACCACGCAAGGGAUGGUGUCAAAUUCGGCGAAACCUAAGCGCCCGCCCGGGCGUAUGGCAACGCGGAGCCAAGCUUCGGCGCCUGCGCCGAUGAAGGUGUAGAGACUAGACGGCACCCACCUAAGGCGAACGUUAUGGUGAAGGCAUAGUCAAGGGAGUGGCGAAAGUCACACAAACCGG [C82G A145G C150U C169A], the figure is 0.0118; as for GUGCCUUGCGCCGGGAAACCACGCAAGGGAUGGUGUCAAAUUCGGCGAAACCUAAGCGCCCGCCCGGGCGUAUGGCAACGCGGAGCCAAGCUUCGGCGCCUGCGCCGAUGGAGGUGUAGCGACUAGACGGCACCCACCUAAGGCGAACGAUAUGGUGAAGGCAUAGUCCAGGGAGUGGCGAAAGUCACACAAACCGG [C82G A111G A120C A145G C150A], 0.0184.
With GUGCCUUGCGCCGGGAAACCACGCAAGGGAUGGUGUCAAAUUCGGCGAAACCUAAGCGCCCGCCCGGGCGUAUGGCAACGCUGAGCCAAGCUUCGGCGCCUGCGCCGAUGCAGGUGUAGGGACUAGACGGCACCCACCUAAGGCUAACGUUAUGGUGAAGGCAUAGUCCAGGGAGAGGCGAAAGUCACACAAACCGG [C82U A111C A120G A145U C150U U176A] the figure was 0.013; with GUGCCUUGCGCCGGGAAACCACGCAAGGGAUGGUGUCAAAUUCGGCGAAACCUAAGCGCCCGCCCGGGCGUAUGGCAACGCUGAGCCAAGCUUCGGCGCCUGCGCCGAUGUAGGUGUAGAGACUAGACGGCACCCACCUAAGGCAAACGAUAUGGUGAAGGCAUAGUCGAGGGAGUGGCGAAAGUCACACAAACCGG [C82U A111U C150A C169G], 0.00941.
As for GUGCCUUGCGCCGGGAAACCACGCAAGGGAUGGUGUCAAAUUCGGCGAAACCUAAGCGCCCGCCCGGGCGUAUGGCAACGCUGAGCCAAGCUUCGGCGCCUGCGCCGAUGUAGGUGUAGAGACUAGACGGCACCCACCUAAGGCUAACGAUAUGGUGAAGGCAUAGUCUAGGGAGUGGCGAAAGUCACACAAACCGG [C82U A111U A145U C150A C169U], the reverse-splicing fitness was 0.0106.
As for GUGCCUUGCGCCGGGAAACCACGCAAGGGAUGGUGUCAAAUUCGGCGAAACCUAAGCGCCCGCCCGGGCGUAUGGCAACGCCGAGCCAAGCUUCGGCGCCUGCGCCGAUGCAGGUGUAGUGACUAGACGGCACCCACCUAAGGCUAACGUUAUGGUGAAGGCAUAGUCAAGGGAGAGGCGAAAGUCACACAAACCGG [A111C A120U A145U C150U C169A U176A], the figure is 0.00293; as for GUGCCUUGCGCCGGGAAACCACGCAAGGGAUGGUGUCAAAUUCGGCGAAACCUAAGCGCCCGCCCGGGCGUAUGGCAACGCCGAGCCAAGCUUCGGCGCCUGCGCCGAUGAAGGUGUAGAGACUAGACGGCACCCACCUAAGGCGAACGCUAUGGUGAAGGCAUAGUCCAGGGAGGGGCGAAAGUCACACAAACCGG [A145G U176G], 0.325; as for GUGCCUUGCGCCGGGAAACCACGCAAGGGAUGGUGUCAAAUUCGGCGAAACCUAAGCGCCCGCCCGGGCGUAUGGCAACGCGGAGCCAAGCUUCGGCGCCUGCGCCGAUGUAGGUGUAGUGACUAGACGGCACCCACCUAAGGCAAACGAUAUGGUGAAGGCAUAGUCUAGGGAGCGGCGAAAGUCACACAAACCGG [C82G A111U A120U C150A C169U U176C], 0.00482.
As to GUGCCUUGCGCCGGGAAACCACGCAAGGGAUGGUGUCAAAUUCGGCGAAACCUAAGCGCCCGCCCGGGCGUAUGGCAACGCAGAGCCAAGCUUCGGCGCCUGCGCCGAUGGAGGUGUAGAGACUAGACGGCACCCACCUAAGGCUAACGUUAUGGUGAAGGCAUAGUCCAGGGAGCGGCGAAAGUCACACAAACCGG [C82A A111G A145U C150U U176C], the reverse-splicing fitness is 0.166.
As to GUGCCUUGCGCCGGGAAACCACGCAAGGGAUGGUGUCAAAUUCGGCGAAACCUAAGCGCCCGCCCGGGCGUAUGGCAACGCAGAGCCAAGCUUCGGCGCCUGCGCCGAUGCAGGUGUAGCGACUAGACGGCACCCACCUAAGGCAAACGAUAUGGUGAAGGCAUAGUCGAGGGAGCGGCGAAAGUCACACAAACCGG [C82A A111C A120C C150A C169G U176C], the reverse-splicing fitness was found to be 0.0202.
As for GUGCCUUGCGCCGGGAAACCACGCAAGGGAUGGUGUCAAAUUCGGCGAAACCUAAGCGCCCGCCCGGGCGUAUGGCAACGCCGAGCCAAGCUUCGGCGCCUGCGCCGAUGGAGGUGUAGGGACUAGACGGCACCCACCUAAGGCUAACGCUAUGGUGAAGGCAUAGUCCAGGGAGUGGCGAAAGUCACACAAACCGG [A111G A120G A145U], the figure is 0.274; as for GUGCCUUGCGCCGGGAAACCACGCAAGGGAUGGUGUCAAAUUCGGCGAAACCUAAGCGCCCGCCCGGGCGUAUGGCAACGCGGAGCCAAGCUUCGGCGCCUGCGCCGAUGUAGGUGUAGCGACUAGACGGCACCCACCUAAGGCCAACGUUAUGGUGAAGGCAUAGUCUAGGGAGGGGCGAAAGUCACACAAACCGG [C82G A111U A120C A145C C150U C169U U176G], 0.00678.
Regarding GUGCCUUGCGCCGGGAAACCACGCAAGGGAUGGUGUCAAAUUCGGCGAAACCUAAGCGCCCGCCCGGGCGUAUGGCAACGCGGAGCCAAGCUUCGGCGCCUGCGCCGAUGGAGGUGUAGCGACUAGACGGCACCCACCUAAGGCGAACGGUAUGGUGAAGGCAUAGUCAAGGGAGCGGCGAAAGUCACACAAACCGG [C82G A111G A120C A145G C150G C169A U176C], the reverse-splicing fitness came to 0.0151.
As for GUGCCUUGCGCCGGGAAACCACGCAAGGGAUGGUGUCAAAUUCGGCGAAACCUAAGCGCCCGCCCGGGCGUAUGGCAACGCUGAGCCAAGCUUCGGCGCCUGCGCCGAUGUAGGUGUAGCGACUAGACGGCACCCACCUAAGGCUAACGGUAUGGUGAAGGCAUAGUCCAGGGAGAGGCGAAAGUCACACAAACCGG [C82U A111U A120C A145U C150G U176A], the reverse-splicing fitness is 0.00587.
